From paper PMC6065307, “Structural dynamics of the transaminase active site revealed by the crystal structure of a co-factor free omega-transaminase from Vibrio fluvialis JS17” (Scientific Reports, 2018)

Biological target: the molecule itself
Assay: SEC-MALS; Superdex 200 HR 10/30 coupled to MALS and refractive index detectors; 20 mM Tris-HCl pH 8.0, 150 mM NaCl; measured mass 103.72 kDa against 52.79 kDa theoretical monomer

B1: ω-transaminase from Vibrio fluvialis JS17 (Vfat), apo (cofactor-free) form (enzyme, UniProt F2XBU9 1-453, looked up)
chain: MNKPQSWEARAETYSLYGFTDMPSLHQRGTVVVTHGEGPYIVDVNGRRYLDANSGLWNMVAGFDHKGLIDAAKAQYERFPGYHAFFGRMSDQTVMLSEKLVEVSPFDSGRVFYTNSGSEANDTMVKMLWFLHAAEGKPQKRKILTRWNAYHGVTAVSASMTGKPYNSVFGLPLPGFVHLTCPHYWRYGEEGETEEQFVARLARELEETIQREGADTIAGFFAEPVMGAGGVIPPAKGYFQAILPILRKYDIPVISDEVICGFGRTGNTWGCVTYDFTPDAIISSKNLTAGFFPMGAVILGPELSKRLETAIEAIEEFPHGFTASGHPVGCAIALKAIDVVMNEGLAENVRRLAPRFEERLKHIAERPNIGEYRGIGFMWALEAVKDKASKTPFDGNLSVSERIANTCTDLGLICRPLGQSVVLCPPFILTEAQMDEMFDKLEKALDKVFAEVA
notes: ω-transaminase (amine:pyruvate transaminase) from Vibrio fluvialis JS17; 'the coding region of Vfat' cloned into pET24ma; theoretical mass with the His-tag 52.79 kDa; Homodimer by MALS and in the crystal; also called apo Vfat; amine:pyruvate transaminase; source: E. coli BL21 (DE3), purified (Ni-NTA, Superdex 200 gel filtration); not shown: His-tag, C-terminal, kept
stoichiometry N: 2
